From patent US20210179715A1 (Genentech, published 2021)
Where “and” joins values, the source holds several entries; their conditions need not be identical. Identical values can stand only once. Like-named read-outs stand apart in the source and are kept apart here.

Experiments:
human LY6G6D-Fc [1] = target: T1, human LY6G6D-Fc (human, UniProt O95868 20-104); assay: BIAcore SPR; LY6G6D-Fc on chip; TDB flowed; 37 C
T1 construct: also called hu Ly6G6D; huLY6G6D; not shown: linker and Fc part
T1 sequence: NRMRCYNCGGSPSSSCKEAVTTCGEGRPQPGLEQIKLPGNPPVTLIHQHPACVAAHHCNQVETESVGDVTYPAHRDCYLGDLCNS
Method: TDBs comprising the anti-LY6G6D arm 20Al2.QNTv12 and the anti-CD3 38E4.v1 (left panel; produced using a two-cell-manufacturing system), 38E4.v1 MD1 (center panel; produced using a one-cell-manufacturing system), or 38E4.v1 MD4 arm (right panel; produced using a one-cell-manufacturing system) were assayed for affinity for a human Ly6G6D polypeptide (FIG. 25) using a BIAcore assay.

[2] = target: T2, 27mer human CD3 polypeptide conjugated to biotin (human, conjugated to biotin (site not stated)); assay: BIAcore T200 SPR; biotin 27mer CD3 peptide on SA chip; TDB flowed; 37 C
T2 construct: The assay text says only '27mer human CD3 polypeptide'; also called HuCD3e pept biotin
T2 peptide: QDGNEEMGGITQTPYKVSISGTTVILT
Method: The MD1 and MD4 variants thus retained the high affinity of 38E4v1. Assays were performed using a BIAcore T200: 27mer human and cyno CD3 polypeptides were conjugated to biotin and were immobilized on a SA CM5 chip, and TDBs were flowed through at 100 μl/min at 37° C.

[3] = target: T2, 27mer human CD3 polypeptide conjugated …; assay: as above
Method: Assays were performed using a BIAcore T200. 27mer human and cyno CD3 polypeptides were conjugated to biotin and were immobilized on a SA CM5 chip. LY6G6D TDBs were flowed through at 37° C.

human LY6G6D-Fc [4] = target: T1, human LY6G6D-Fc; assay: BIAcore SPR; chimeric Fab; Ly6G6D-Fc captured on Protein A chip; 37 C
human LY6G6D-Fc [5] = target: T1, human LY6G6D-Fc; assay: BIAcore SPR
Method: (§1) The humanized rb.20A12 variant 20A12.QNTv12, the humanized rb.6E10 variant 6E10.v114, and the anti-LY6G6D 1G4 arm were paired with the anti-CD3 38E4v1 or 40G5c arm as TDBs and tested for affinity to human and cynomolgus LY6G6D in a BIAcore® assay. Rabbit 20Al2, rabbit 6E10, and humanized 20A12.QNTv12 and 20A12.SNVv12 were additionally assayed for binding as antigen-binding fragments (Fabs). LY6G6D-Fc was directly immobilized on a chip, and TDBs were flowed through at 37° C., except for the rb6E10 Fab, which was assayed at 25° C.

[6] = target: T3, polypeptide comprising amino acids 93-104 of LY6G6D (HRDCYLGDLCNS) (human); assay: co-crystal structure, 2.2 A
T3 construct: also called LY6G6D peptide
T3 peptide: HRDCYLGDLCNS
Method: Ten 20A12.QNTv12 Fabs were tested.

human LY6G6D-Fc [7] = target: T1, human LY6G6D-Fc; assay: BIAcore SPR; LY6G6D-Fc on chip; Fab flowed; 37 C
Method: as §1

[8] = target: T3, polypeptide comprising amino acids …; assay: co-crystal structure
human LY6G6D-Fc [9] = target: T1, human LY6G6D-Fc; assay: BIAcore SPR; LY6G6D-Fc on chip; TDB flowed; 37 C; remark: listed apart in the source
Method: TDBs comprising the anti-LY6G6D 20A12.QNTv12 arm and the anti-CD3 38E4.v1 arm (FIG. 24A) or 40G5C arm (FIG. 24B) were assayed for affinity for a human and cyno Ly6G6D polypeptide using a BIAcore assay. Ly6G6D-Fc was directly immobilized on the chip, and the TDB was flowed through at 37° C. Similar assays were performed for TDBs comprising the anti-LY6G6D 1G4 arm and the anti-CD3 38E4.v1 arm (FIG. 24C) or 40G5C arm (FIG. 24D).

B1: LY6G6D TDB assembled using a one-cell system comprising the anti-LY6G6D 20A12.QNTv12 arm (one-cell) and the anti-CD3 38E4v1 MD4 arm (bispecific antibody, V domains shown)
VH 1: EVQLLESGGGLVQPGGSLRLSCAASGFDFVNNAMIWVREAPGKGLEWVSALSFADNTAYYATWASGRFTISRDSSKTTVYLQMNSLRAEDTAVYYCMRGDLWGPGTLVTVSS
VL 1: DIQMTQSPSTLSASVGDRVTITCQASESITRYLNWYQKKPGKAPKLLIYDASKLPSGVPSRFSGSGSGTEFTLTISSLQPDDFATYYCQSTSFRGRSYQNTFGGGTKVEIK
VH 2: EVQLVQSGAEVKKPGASVKVSCKASGFTFTSYYIHWVRKAPGQGLEWIGWIYPENDNTKYNEKFKDRVTITADTSTSTAYLELSSLRSEDTAVYYCARDGYSRYYFDYWGQGTLVTVSS
VL 2: DIVMTQSPDSLAVSLGERATINCKSSQSLLNSRTRKNYLAWYQEKPGQPPKLLIYWASTRKSGVPDRFSGSGSGTDFTLTISSLQAEDVAVYYCKQSFILRTFGQGTKVEIK
notes: also called 20A12.QNTv12.MD4/38E4v1; MD4 one-cell
Human LY6G6D-Fc [1]
  Kd: 1.89 nM
  koff: 0.000559 s⁻¹
  kon: 296000 M⁻¹ s⁻¹
[2]
  Kd: 18.8 nM and 18.6 nM
  koff: 0.0544 s⁻¹ and 0.0495 s⁻¹
  kon: 2.89e+06 M⁻¹ s⁻¹ and 2.66e+06 M⁻¹ s⁻¹
[3]
  Kd: 18.7 nM

B2: LY6G6D TDB assembled using a one-cell system comprising the anti-LY6G6D 20A12.QNTv12 arm (one-cell) and the anti-CD3 38E4v1 (WT) arm (bispecific antibody, V domains shown)
VH 1: EVQLLESGGGLVQPGGSLRLSCAASGFDFVNNAMIWVREAPGKGLEWVSALSFADNTAYYATWASGRFTISRDSSKTTVYLQMNSLRAEDTAVYYCMRGDLWGPGTLVTVSS
VL 1: DIQMTQSPSTLSASVGDRVTITCQASESITRYLNWYQKKPGKAPKLLIYDASKLPSGVPSRFSGSGSGTEFTLTISSLQPDDFATYYCQSTSFRGRSYQNTFGGGTKVEIK
VH 2: EVQLVQSGAEVKKPGASVKVSCKASGFTFTSYYIHWVRKAPGQGLEWIGWIYPENDNTKYNEKFKDRVTITADTSTSTAYLELSSLRSEDTAVYYCARDGYSRYYFDYWGQGTLVTVSS
VL 2: DIVMTQSPDSLAVSLGERATINCKSSQSLLNSRTRKNYLAWYQEKPGQSPKLLIYWTSTRKSGVPDRFSGSGSGTDFTLTISSLQAEDVAVYYCKQSFILRTFGQGTKVEIK
notes: also called WT one-cell; one-cell WT
[2]
  Kd: 19.9 nM and 21.3 nM
  koff: 0.0516 s⁻¹ and 0.0498 s⁻¹
  kon: 2.59e+06 M⁻¹ s⁻¹ and 2.34e+06 M⁻¹ s⁻¹
[3]
  Kd: 20.6 nM

B3: LY6G6D TDB assembled using a one-cell system comprising the anti-LY6G6D 20A12.QNTv12 arm (one-cell) and the anti-CD3 38E4v1 MD1 arm (bispecific antibody, V domains shown)
VH 1: EVQLLESGGGLVQPGGSLRLSCAASGFDFVNNAMIWVREAPGKGLEWVSALSFADNTAYYATWASGRFTISRDSSKTTVYLQMNSLRAEDTAVYYCMRGDLWGPGTLVTVSS
VL 1: DIQMTQSPSTLSASVGDRVTITCQASESITRYLNWYQKKPGKAPKLLIYDASKLPSGVPSRFSGSGSGTEFTLTISSLQPDDFATYYCQSTSFRGRSYQNTFGGGTKVEIK
VH 2: EVQLVQSGAEVKKPGASVKVSCKASGFTFTSYYIHWVRKAPGQGLEWIGWIYPENDNTKYNEKFKDRVTITADTSTSTAYLELSSLRSEDTAVYYCARDGYSRYYFDYWGQGTLVTVSS
VL 2: DIVMTQSPDSLAVSLGERATINCKSSQSLLNSRTRKNYLAWYQEKPGQPPKLLIYWASTRESGVPDRFSGSGSGTDFTLTISSLQAEDVAVYYCTQSFILRTFGQGTKVEIK
notes: also called 20A12.QNTv12.MD1/38E4v1; MD1 one-cell
Human LY6G6D-Fc [1]
  Kd: 1.9 nM
  koff: 0.000796 s⁻¹
  kon: 420000 M⁻¹ s⁻¹
[2]
  Kd: 32.8 nM and 32.4 nM
  koff: 0.0504 s⁻¹ and 0.0456 s⁻¹
  kon: 1.54e+06 M⁻¹ s⁻¹ and 1.41e+06 M⁻¹ s⁻¹
[3]
  Kd: 32.6 nM

B4: rb20A12.IA (C35I-C50A) chimeric Fab (Fab, V domains shown)
VH: QQQLEESGGDLVKPGASLTLTCTASGFDFVNNAMIWVRQAPGKGLEWIAALSFADNTAYYATWASGRFTISKISSTTVTLRMTSLTGADTATYFCMRGDLWGPGTLVTVSS
VL: DIVMTQTPSSVSAAVGGTVTINCQASESITRYLNWYQQKPGQPPKLLIYDASKLPSGVPSRFKGSGSGTQFTLTTSDLECADAATYYCQSTSFRGRSYNNTFGGGTEVVVK
notes: also called rabbit 20A12 comprising C35I and C50A (IA) mutations
Human LY6G6D-Fc [4]
  Kd: 0.86 nM

B5: hu20A12.QNTv12 Fab (Fab, V domains shown)
VH: EVQLLESGGGLVQPGGSLRLSCAASGFDFVNNAMIWVRQAPGKGLEWVSALSFADNTAYYATWASGRFTISRDSSKTTVYLQMNSLRAEDTAVYYCMRGDLWGPGTLVTVSS
VL: DIQMTQSPSTLSASVGDRVTITCQASESITRYLNWYQQKPGKAPKLLIYDASKLPSGVPSRFSGSGSGTEFTLTISSLQPDDFATYYCQSTSFRGRSYQNTFGGGTKVEIKR
Human LY6G6D-Fc [5]
  Kd: 0.14 nM
[6]
  binding result: binds
Human LY6G6D-Fc [7]
  Kd: 0.136 nM
  koff: 0.000227 s⁻¹
  kon: 1.67e+06 M⁻¹ s⁻¹

B6: 1G4 Fab (Fab, V domains shown)
VH: EVQLVQSGAEVKKPGASVKVSCKASGYTFTTYVMHWVRQAPGQGLEWMGYINPYNDGTKYNEKFKGRVTMTRDTSISTAYMELSRLRSDDTAVYYCGRRNFDYWGQGTLVTVSS
VL: DIVMTQSPDSLAVSLGERATINCKSSQSLLLSGNQENYLAWHQQKPGQPPKTLITWASTRISGVPDRFSGSGSGTDFTLTISSLQAEDVAVYYCQQSYSAPYTFGGGTKVEIKR
notes: also called Fab of 1G4
[8]
  binding result: binds

B7: LY6G6D TDB comprising the anti-LY6G6D 1G4 arm and the anti-CD3 38E4.v1 arm (bispecific antibody, V domains shown)
VH 1: EVQLVQSGAEVKKPGASVKVSCKASGYTFTTYVMHWVRQAPGQGLEWMGYINPYNDGTKYNEKFKGRVTMTRDTSISTAYMELSRLRSDDTAVYYCGRRNFDYWGQGTLVTVSS
VL 1: DIVMTQSPDSLAVSLGERATINCKSSQSLLLSGNQENYLAWHQQKPGQPPKTLITWASTRISGVPDRFSGSGSGTDFTLTISSLQAEDVAVYYCQQSYSAPYTFGGGTKVEIK
VH 2: EVQLVQSGAEVKKPGASVKVSCKASGFTFTSYYIHWVRQAPGQGLEWIGWIYPENDNTKYNEKFKDRVTITADTSTSTAYLELSSLRSEDTAVYYCARDGYSRYYFDYWGQGTLVTVSS
VL 2: DIVMTQSPDSLAVSLGERATINCKSSQSLLNSRTRKNYLAWYQQKPGQSPKLLIYWTSTRKSGVPDRFSGSGSGTDFTLTISSLQAEDVAVYYCKQSFILRTFGQGTKVEIK
notes: also called 1G4/38E4v1
Human LY6G6D-Fc [9]
  Kd: 16.3 nM
  koff: 0.00886 s⁻¹
  kon: 544000 M⁻¹ s⁻¹

B8: hu20A12.SNVv12 Fab (Fab, V domains shown)
VH: EVQLLESGGGLVQPGGSLRLSCAASGFDFVNNAMIWVRQAPGKGLEWVSALSFADNTAYYATWASGRFTISRDSSKTTVYLQMNSLRAEDTAVYYCMRGDLWGPGTLVTVSS
VL: DIQMTQSPSTLSASVGDRVTITCQASESITRYLNWYQQKPGKAPKLLIYDASKLPSGVPSRFSGSGSGTEFTLTISSLQPDDFATYYCQSTSFRGRSYSNVFGGGTKVEIKR
Human LY6G6D-Fc [7]
  Kd: 0.0195 nM
  koff: 4.26e-05 s⁻¹
  kon: 2.18e+06 M⁻¹ s⁻¹
